From patent US20240000899A1, “THERAPEUTIC USEFUL AGAINST ANTIMICROBIAL RESISTANT AGENTS” (priority 2022, published 2024)
“Also recorded” adds a separate entry of the source.

System: Staphylococcus aureus ATCC 6538
Assay: Modified ASTM E2315 test of low pH therapeutic with AMPs, acid neutralized after one minute
Format: cell-based
Text: Since the reaction speed of the two different MOAs are different, a modified test protocol was developed, which is summarized below. • a. […] Heretofore, it has been believed that AMPs are unstable in low pH environments. Mixture of dry powder immediately prior to use is believed to address concerns regarding minimization of in vitro stability. • b. The prepared AMP solution was then mixed with the bacteria containing media. After one minute the acid solution was neutralized. This simulates the short antimicrobial period for the elevated proton concentration in vivo. The bacteria population was measured to determine efficacy after one minute. • c. The AMPs retained in the solution are not expected to stop their antimicrobial activity after acid neutralization, so a second bacteria population measurement was made after 24 hours. [table]

B1: lactoferrin (protein, UniProt P02788 20-710, looked up)
Lactotransferrin: GRRRSVQWCAVSQPEATKCFQWQRNMRKVRGPPVSCIKRDSPIQCIQAIAENRADAVTLDGGFIYEAGLAPYKLRPVAAEVYGTERQPRTHYYAVAVVKKGGSFQLNELQGLKSCHTGLRRTAGWNVPIGTLRPFLNWTGPPEPIEAAVARFFSASCVPGADKGQFPNLCRLCAGTGENKCAFSSQEPYFSYSGAFKCLRDGAGDVAFIRESTVFEDLSDEAERDEYELLCPDNTRKPVDKFKDCHLARVPSHAVVARSVNGKEDAIWNLLRQAQEKFGKDKSPKFQLFGSPSGQKDLLFKDSAIGFSRVPPRIDSGLYLGSGYFTAIQNLRKSEEEVAARRARVVWCAVGEQELRKCNQWSGLSEGSVTCSSASTTEDCIALVLKGEADAMSLDGGYVYTAGKCGLVPVLAENYKSQQSSDPDPNCVDRPVEGYLAVAVVRRSDTSLTWNSVKGKKSCHTAVDRTAGWNIPMGLLFNQTGSCKFDEYFSQSCAPGSDPRSNLCALCIGDEQGENKCVPNSNERYYGYTGAFRCLAENAGDVAFVKDVTVLQNTDGNNNEAWAKDLKLADFALLCLDGKRKPVTEARSCHLAMAPNHAVVSRMDKVERLKQVLLHQQAKFGRNGSDCPDKFCLFQSETKNLLFNDNTECLARLHGKTTYEKYLGPQYVAGITNLKKCSTSPLLEACEFLRK
Bacteria population after one minute, then acid neutralized, no soiling, single-replicant
  1-min Efficacy (log): 0.05 log
Comparison of Table 3 examples
  Efficacy on S. aureus, conclusion in words: minimal efficacy; also recorded: not effective
Second bacteria population measurement after 24 hours, acid neutralized after one minute
  24-hour Efficacy (log): 0.16 log
